What was measured:
Experiment in all cases: resonant mirror detection
[1] = target: GST-NHE1cd mutant M1 (K513KKQETKR→AAAQETAA) (rat (Rattus norvegicus))
[2] = target: GST-NHE1cd mutant M2 (R556FNKKYVKK→…) (rat (Rattus norvegicus))
[3] = target: recombinant human calmodulin with four extra N-terminal amino acids Gly-Ser-His-Met (human)
[4] = target: GST-NHE1cd mutant M3 (K513KK→AAA) (rat (Rattus norvegicus))

Row | Substance | Kd [1] | kon [1] | Kd [2] | kon [2] | Kd [3] | Kd [4] | koff [4] | kon [4]
1 | exon 5-encoded human 4.1R^80 polypeptide (GST fusion) (domain or fragment) | 4790 nM | 250 M⁻¹ s⁻¹ | 26100 nM | 240 M⁻¹ s⁻¹ |  |  |  | 
2 | recombinant 4.1R FERM domain (from UniProt P11171 210-488) (domain or fragment) |  |  |  |  | 100 nM | 545 nM | 0.065 s⁻¹ | 120000 M⁻¹ s⁻¹

Source: paper PMC4338608
